Laboratory results from patent publication US20130237684A1 (RESEARCH CORPORATION TECHNOLOGIES, published 2013).
Numbering of substitutions follows the chain as printed. Square brackets hold non-standard residues; d marks the D form. Ends that are not written are not given here. * marks the point of attachment. hSer(lactone) = O=C1OCC[C@@H]1N*

Columns and labels:
[1] = target: T1, C-terminal fragment of CD92 (FNfn10 cleaved in the CD loop) (human, UniProt P02751 1578-1631); assay: Trp fluorescence titration, 750 mM glycerol, 1 M urea, about 500 nM N-terminal fragment
T1 construct: Start at residue 43 is inferred from the N-terminal fragment ending at Asn42
T1 sequence (P02751 other isoform, or with tags, fused parts or gaps): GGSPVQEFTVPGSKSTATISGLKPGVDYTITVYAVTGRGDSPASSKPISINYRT
Experimental: (§1) Proteins were dissolved to a final concentration of 500 nM in 20 mM sodium phosphate buffer at pH 6.0 containing 100 mM sodium chloride, 750 mM glycerol unless otherwise noted and various urea concentration between 1 M and 2.5 M. Urea concentration was determined using an Abbe refractometer (Spectronic Instruments) as described (Pace and Sholtz 1997). To obtain ([…] on the reconstitution at conditions without the addition of urea and glycerol, a series of C-terminal fragment-titration experiments with varying urea or glycerol concentrations, respectively, were performed. The dissociation constants in the absence of urea or glycerol were estimated by extrapolation based on experimental data
(§2) A dissociation constant can be determined from a titration experiment where the concentration of the fluorophore is held constant and its corresponding binding partner is added. […] When measuring the dissociation constant, the concentration of the fluorophore has to be lower than or near the dissociation constant. To obtain a more accurate value, a series of titration experiments were performed at higher urea concentration, followed by subsequent extrapolation to compensate for the addition of urea.

[2] = target: T1, C-terminal fragment of CD92 (FNfn10 …); assay: Trp fluorescence titrations, extrapolated to plain buffer (no urea, no glycerol)
Experimental: as §2
(§3) To gain an extrapolation that excluded both glycerol and urea, a stepwise approach was taken that assumed that the two co-solutes had independent effects on the dissociation constant.

[3] = target: T1, C-terminal fragment of CD92 (FNfn10 …); assay: size exclusion chromatography of the mixed fragments of CD92
Experimental: Size exclusion chromatography was performed on the fragments of CD92 using a Sephadex75 gel filtration column.

[4] = target: T1, C-terminal fragment of CD92 (FNfn10 …); assay: Trp fluorescence titrations, extrapolated to no urea, 750 mM glycerol
Experimental: as §1, §2

[5] = target: the molecule itself; assay: self-association seen by NMR line broadening
[6] = target: T1, C-terminal fragment of CD92 (FNfn10 …); assay: Trp fluorescence titrations, extrapolated to plain buffer in the reverse order
Experimental: as §2, §3

Yeast ubiquitin (Sigma) = target: T2, Yeast ubiquitin (Sigma) (yeast, UniProt P0CG63 1-76); assay: clone isolated by phage display selection on ubiquitin; listed as ubiquitin-binding monobody
T2 construct: mature; also called soluble ubiquitin; free ubiquitin
T2 sequence (P0CG63 1-76 limits assumed): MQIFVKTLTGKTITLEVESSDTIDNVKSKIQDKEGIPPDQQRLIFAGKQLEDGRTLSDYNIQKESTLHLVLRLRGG

FN(C)-STAV11 = target: T3, FN(C)-STAV11; assay: flow cytometry of mated yeast: surface C-FN3-STAV11 by anti-V5/FITC, captured secreted N-FN3 by anti-FLAG/PE
T3 construct: also called C-FN3-STAV11
T3 chain: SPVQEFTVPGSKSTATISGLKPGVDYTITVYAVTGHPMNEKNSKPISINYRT

**Q.** VSDVPRKLQVVAATPTSLLISWDAPAVTVRYYRITYGETGGNGG[hSer(lactone)] (other, not fully specified, also called mutant CD-loop fragment) was tested. Which Kd [1] did it give?
**A.** Its Kd is ~10 nM.

**Q.** And the Kd [2]?
**A.** The Kd was 3.6 nM.

**Q.** And the Kd [3]?
**A.** Its Kd is < 1000 nM.

**Q.** What about the Kd [4] of the same binder?
**A.** Its Kd is ~1.5 nM.

**Q.** Does VSDVPRKLQVVAATPTSLLISWDAPAVTVRYYRITYGETGGNGG[hSer(lactone)] (other, not fully specified, also called mutant CD-loop fragment) bind [5]?
**A.** Result: binds

**Q.** And the Kd [6]?
**A.** The Kd was 3.9 nM.

B1: ubiquitin-binding monobody 212 (Fn3 with BC loop CWRRA and FG loop RWVGLAW), phage clone (designed binder, not shown: large carriers; small tags and cut ends)
chain: VSDVPRDLEVVAATPTSLLISWDAPCWRRAYYRITYGETGGNSPVQEFTVPGSKSTATISGLKPGVDYTITVYAVTGRWVGLAWSKPISINYRT
notes: also called clone 212
**Q.** Does B1 bind (Yeast ubiquitin (Sigma))?
**A.** Result: binds

B2: ubiquitin-binding monobody 213 (Fn3 with BC loop CKHRR and FG loop FADLWWR), phage clone (designed binder, not shown: large carriers; small tags and cut ends)
chain: B1 chain with W27K, R28H, A30R, R78F, W79A, V80D, G81L, L82W, A83W, W84R
notes: also called clone 213
**Q.** Does B2 bind (Yeast ubiquitin (Sigma))?
**A.** Result: binds

B3: ubiquitin-binding monobody 215 (Fn3 with BC loop CNWRR and FG loop RAYRYRW), phage clone (designed binder, not shown: large carriers; small tags and cut ends)
chain: B1 chain with W27N, R28W, A30R, W79A, V80Y, G81R, L82Y, A83R
notes: also called clone 215
**Q.** Does B3 bind (Yeast ubiquitin (Sigma))?
**A.** Result: binds

B4: ubiquitin-binding monobody 214 (Fn3 with BC loop CRRGR and FG loop RGFMWLS), phage clone (designed binder, not shown: large carriers; small tags and cut ends)
chain: B1 chain with W27R, R29G, A30R, W79G, V80F, G81M, L82W, A83L, W84S
notes: also called clone 214
**Q.** Does B4 bind (Yeast ubiquitin (Sigma))?
**A.** Result: binds

B5: N-FN3 (residues 1-42) followed by the FLAG tag, secreted from yeast (other)
chain: VSDVPRDLEVVAATPTSLLISWDAPAVTVRYYRITYGETGGN
notes: also called wild-type N-terminal fragment; pGalsecFN(N)FLAG; not shown: FLAG tag
**Q.** Does B5 bind (FN(C)-STAV11)?
**A.** Result: binds
